# From PMC3474739, “Novel Frataxin Isoforms May Contribute to the Pathological Mechanism of Friedreich Ataxia” (PLoS ONE, 2012)
# B1: human ISCU, mitochondrial mature form (natural protein, UniProt Q9H1K1 35-167, looked up)
# chain: YHKKVVDHYENPRNVGSLDKTSKNVGTGLVGAPACGDVMKLQIQVDEKGKIVDARFKTFGCGSAIASSSLATEWVKGKTVEEALTIKNTDIAKELCLPPVKLHCSMLAEDAIKAALADYKLKQEPKKGEAEKK
# notes: human ISCU, mitochondrial mature form; source: E. coli BL21(DE3), purified
# B2: frataxin isoform II (natural protein, human, UniProt Q16595 76-210, looked up)
# chain: MNLRKSGTLGHPGSLDETTYERLAEETLDSLAEFFEDLADKPYTFEDYDVSFGSGVLTVKLGGDLGTYVINKQTPNKQIWLSSPSSGPKRYDWTGKNWVYSHDGVSLHELLAAELTKALKTKLDLSSLAYSGKDA
# notes: human frataxin isoform II, 135 amino acids, 14.9 kDa, begins at the second AUG (methionine, 76th aa of the FXN precursor) and runs to the stop codon; Cloned into pET24a(+) with NdeI and XhoI sites; also called FXN II; FXN isoform II; source: E. coli BL21(DE3), purified
# Tests used:
# Assay in all cases: SEC; purified ISCS/ISD11, ISCU and FXN isoform mixed at a molar ratio of 1:1:1, 1 h anaerobically at room temperature, then Superdex200 in 50 mM Tris, 200 mM NaCl, 5 µM PLP, pH 8.0; fractions analysed by SDS-PAGE
# Conditions in all cases: both partners purified
# [1] = target: T1, ISCS/ISD11 (human, UniProt Q9Y697 56-457; Q9HD34 1-91)
# T1 construct: human mitochondrial ISCS (NFS1) that misses the first 55 amino acids of the precursor (NFS1Δ1-55); human ISD11; Both chains in pACYCDuet-1; also called NFS1Δ1-55 with ISD11; source: E. coli, co-expressed (plasmid pZM90b), purified; also co-expressed with His-ISCU in E. coli BL21(DE3) or CL100(DE3), in lysate
# T1 sequence (Q9Y697 56-457, chain 1 of 2): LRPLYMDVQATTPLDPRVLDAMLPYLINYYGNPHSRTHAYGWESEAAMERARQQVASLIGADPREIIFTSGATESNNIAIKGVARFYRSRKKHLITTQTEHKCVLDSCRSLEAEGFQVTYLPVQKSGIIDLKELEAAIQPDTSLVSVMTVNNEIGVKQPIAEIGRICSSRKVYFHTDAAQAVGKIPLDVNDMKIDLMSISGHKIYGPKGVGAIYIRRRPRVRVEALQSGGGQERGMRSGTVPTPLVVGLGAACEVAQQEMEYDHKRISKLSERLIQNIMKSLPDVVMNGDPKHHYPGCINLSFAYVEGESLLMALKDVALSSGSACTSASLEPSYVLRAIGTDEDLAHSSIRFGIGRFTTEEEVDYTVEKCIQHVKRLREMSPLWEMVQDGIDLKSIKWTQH
# T1 sequence (Q9HD34 whole entry, chain 2 of 2): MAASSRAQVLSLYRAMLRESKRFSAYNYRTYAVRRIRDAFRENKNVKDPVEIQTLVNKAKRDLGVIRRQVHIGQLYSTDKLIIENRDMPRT
# [2] = target: B2
# [3] = target: B1
binding result [1],binding result [3],Binder,binding result [2]
binds,–,B1,binds
binds,–,B2,–
binds,binds,"frataxin isoform I, mature form (natural protein, human, UniProt Q16595 81-210, looked up, Cloned into pET24a(+) with NdeI and XhoI sites; also called FXN I; FXN isoform I; source: E. coli BL21(DE3), purified) SGTLGHPGSLDETTYERLAEETLDSLAEFFEDLADKPYTFEDYDVSFGSGVLTVKLGGDLGTYVINKQTPNKQIWLSSPSSGPKRYDWTGKNWVYSHDGVSLHELLAAELTKALKTKLDLSSLAYSGKDA",–
